Article PMC11098746 (2024)

B1: ADP358 (protein)
chain: MARSPGRAYALLLLLICFNVGSGLHLQVLSTRNENKLLPKHPHLVRQKRAWITAPVALREGEDLSKKNPIAKIHSDLAEERGLKITYKYTGKGITEPPFGIFVFNKDTGELNVTSILDREETPFFLLTGYALDARGNNVEKPLELRIKVLDINDNEPVFTQDVFVGSVEELSAAHTLVMKINATDADEPNTLNSKISYRIVSLEPAYPPVFYLNKDTGEIYTTSVTLDREEHSSYTLTVEARDGNGEVTDKPVKQAQVQIRILDVNDNIPVVENKVLEGMVEENQVNVEVTRIKVFDADEIGSDNWLANFTFASGNEGGYFHIETDAQTNEGIVTLIKEVDYEEMKNLDFSVIVANKAAFHKSIRSKYKPTPIPIKVKVKNVKEGIHFKSSVISIYVSESMDRSSKGQIIGNFQAFDEDTGLPAHARYVKLEDRDNWISVDSVTSEIKLAKLPDFESRYVQNGTYTVKIVAISEDYPRKTITGTVLINVEDINDNCPTLIEPVQTICHDAEYVNVTAEDLDGHPNSGPFSFSVIDKPPGMAEKWKIARQESTSVLLQQSEKKLGRSEIQFLISDNQGFSCPEKQVLTLTVCECLHGSGCREAQHDSYVGLGP
modifications: bait human Fc-tagged dimer
B2: ADP154 (protein)
chain: MAGKWLLCMLLVLGTAIVEAHDGHDDDVIDIEDDLDDVIEEVEDSKPDTTAPPSSPKVTYKAPVPTGEVYFADSFDRGTLSGWILSKAKKDDTDDEIAKYDGKWEVEEMKESKLPGDKGLVLMSRAKHHAISAKLNKPFLFDTKPLIVQYEVNFQNGIECGGAYVKLLSKTPELNLDQFHDKTPYTIMFGPDKCGEDYKLHFIFRHKNPKTGIYEEKHAKRPDADLKTYFTDKKTHLYTLILNPDNSFEILVDQSVVNSGNLLNDMTPPVNPSREIEDPEDRKPEDWDERPKIPDPEAVKPDDWDEDAPAKIPDEEATKPEGWLDDEPEYVPDPDAEKPEDWDEDMDGEWEAPQIANPRCESAPGCGVWQRPVIDNPNYKGKWKPPMIDNPSYQGIWKPRKIPNPDFFEDLEPFRMTPFSAIGLELWSMTSDIFFDNFIICADRRIVDDWANDGWGLKKAADGAAEPGVVGQMIEAAEERP
modifications: bait human Fc-tagged dimer
B3: ADP262 (protein)
chain: QNSQLQEELRGLRETFSNFTASTEAQVKGLSTQGGNVGRKMKSLESQLEKQQKDLSEDHSSLLLHVKQFVSDLRSLSCQMAALQGNGSERTCCPVNWVEHERSCYWFSRSGKAWADADNYCRLEDAHLVVVTSWEEQKFVQHHIGPVNTWMGLHDQNGPWKWVDGTDYETGFKNWRPEQPDDWYGHGLGGGEDCAHFTDDGRWNDDVCQRPYRWVCETELDKASQEPPLL
modifications: bait human Fc-tagged dimer
B4: ADP104 (protein)
chain: MEPPDAPAQARGAPRLLLLAVLLAAHPDAQAEVRLSVPPLVEVMRGKSVILDCTPTGTHDHYMLEWFLTDRSGARPRLASAEMQGSELQVTMHDTRGRSPPYQLDSQGRLVLAEAQVGDERDYVCVVRAGAAGTAEATARLNVFAKPEATEVSPNKGTLSVMEDSAQEIATCNSRNGNPAPKITWYRNGQRLEVPVEMNPEGYMTSRTVREASGLLSLTSTLYLRLRKDDRDASFHCAAHYSLPEGRHGRLDSPTFHLTLHYPTEHVQFWVGSPSTPAGWVREGDTVQLLCRGDGSPSPEYTLFRLQDEQEEVLNVNLEGNLTLEGVTRGQSGTYGCRVEDYDAADDVQLSKTLELRVAYLDPLELSEGKVLSLPLNSSAVVNCSVHGLPTPALRWTKDSTPLGDGPMLSLSSITFDSNGTYVCEASLPTVPVLSRTQNFTLLVQGSPELKTAEIEPKADGSWREGDEVTLICSARGHPDPKLSWSQLGGSPAEPIPGRQGWVSSSLTLKVTSALSRDGISCEASNPHGNKRHVFHFGTVSPQTSQAG
modifications: bait human Fc-tagged dimer
B5: ADP136 (protein)
chain: MVRIAGALRTLLPLLAALLQASVEASGEIALCKTGFPEDVYSAVLSKDVHEGQPLLNVKFSNCNGKRKVQYESSEPADFKVDEDGMVYAVRSFPLSSEHAKFLIYAQDKETQEKWQVAVKLSLKPTLTEESVKESAEVEEIVFPRQFSKHSGHLQRQKRDWVIPPINLPENSRGPFPQELVRIRSDRDKNLSLRYSVTGPGADQPPTGIFIINPISGQLSVTKPLDREQIARFHLRAHAVDINGNQVENPIDIVINVIDMNDNRPEFLHQVWNGTVPEGSKPGTYVMTVTAIDADDPNALNGMLRYRIVSQAPSTPSPNMFTINNETGDIITVAAGLDREKVQQYTLIIQATDMEGNPTYGLSNTATAVITVTDVNDNPPEFTAMTFYGEVPENRVDIIVANLTVTDKDQPHTPAWNAVYRISGGDPTGRFAIQTDPNSNDGLVTVVKPIDFETNRMFVLTVAAENQVPLAKGIQHPPQSTATVSVTVIDVNENPYFAPNPKIIRQEEGLHAGTMLTTFTAQDPDRYMQQNIRYTKLSDPANWLKIDPVNGQITTIAVLDRESPNVKNNIYNATFLASDNGIPPMSGTGTLQIYLLDINDNAPQVLPQEAETCETPDPNSINITALDYDIDPNAGPFAFDLPLSPVTIKRNWTITRLNGDFAQLNLKIKFLEAGIYEVPIIITDSGNPPKSNISILRVKVCQCDSNGDCTDVDRIVGAGLGT
modifications: bait human Fc-tagged dimer
B6: ADP302 (protein)
chain: MAAWKSWTALRLCATVVVLDMVVCKGFVEDLDESFKENRNDDIWLVDFYAPWCGHCKKLEPIWNEVGLEMKSIGSPVKVGKMDATSYSSIASEFGVRGYPTIKLLKGDLAYNYRGPRTKDDIIEFAHRVSGALIRPLPSQQMFEHMQKRHRVFFVYVGGESPLKEKYIDAASELIVYTYFFSASEEVVPEYVTLKEMPAVLVFKDETYFVYDEYEDGDLSSWINRERFQNYLAMDGFLLYELGDTGKLVALAVIDEKNTSVEHTRLKSIIQEVARDYRDLFHRDFQFGHMDGNDYINTLLMDELTVPTVVVLNTSNQQYFLLDRQIKNVEDMVQFINNILDGTVEAQGGDSILQRLKRIVFDAKSTIVSIFKSSP
modifications: bait human Fc-tagged dimer
B7: ADP353 (protein)
chain: MAARWRFWCVSVTMVVALLIVCDVPSASAQRKKEMVLSEKVSQLMEWTNKRPVIRMNGDKFRRLVKAPPRNYSVIVMFTALQLHRQCVVCKQADEEFQILANSWRYSSAFTNRIFFAMVDFDEGSDVFQMLNMNSAPTFINFPAKGKPKRGDTYELQVRGFSAEQIARWIADRTDVNIRVIRPP
modifications: bait human Fc-tagged dimer
B8: ADP128 (protein)
chain: MAAEGWIWRWGWGRRCLGRPGLLGPGPGPTTPLFLLLLLGSVTADITDGNSEHLKREHSLIKPYQGVGSSSMPLWDFQGSTMLTSQYVRLTPDERSKEGSIWNHQPCFLKDWEMHVHFKVHGTGKKNLHGDGIALWYTRDRLVPGPVFGSKDNFHGLAIFLDTYPNDETTERVFPYISVMVNNGSLSYDHSKDGRWTELAGCTADFRNRDHDTFLAVRYSRGRLTVMTDLEDKNEWKNCIDITGVRLPTGYYFGASAGTGDLSDNHDIISMKLFQLMVEHTPDEESIDWTKIEPSVNFLKSPKDNVDDPTGNFRSGPLT
modifications: bait human Fc-tagged dimer
B9: ADP343 (protein)
chain: MALASAAPGSIFCKQLLFSLLVLTLLCDACQKVYLRVPSHLQAETLVGKVNLEECLKSASLIRSSDPAFRILEDGSIYTTHDLILSSERKSFSIFLSDGQRREQQEIKVVLSARENKSPKKRHTKDTALKRSKRRWAPIPASLMENSLGPFPQHVQQIQSDAAQNYTIFYSISGPGVDKEPFNLFYIEKDTGDIFCTRSIDREKYEQFALYGYATTADGYAPEYPLPLIIKIEDDNDNAPYFEHRVTIFTVPENCRSGTSVGKVTATDLDEPDTLHTRLKYKILQQIPDHPKHFSIHPDTGVITTTTPFLDREKCDTYQLIMEVRDMGGQPFGLFNTGTITISLEDENDNPPSFTETSYVTEVEENRIDVEILRMKVQDQDLPNTPHSKAVYKILQGNENGNFIISTDPNTNEGVLCVVKPLNYEVNRQVILQVGVINEAQFSKAASSQTPTMCTTTVTVKIIDSDEGPECHPPVKVIQSQDGFPAGQELLGYKALDPEISSGEGLRYQKLGDEDNWFEINQHTGDLRTLKVLDRESKFVKNNQYNISVVAVDAVGRSCTGTLVVHLDDYNDHAPQIDKEVTICQNNEDFAVLKPVDPDGPENGPPFQFFLDNSASKNWNIEEKDGKTAILRQRQNLDYNYYSVPIQIKDRHGLVATHMLTVRVCDCSTPSECRMKDKSTRDVRPNVILG
modifications: bait human Fc-tagged dimer
B10: ADP133 (protein)
chain: MAPLRPLLILALLAWVALADQESCKGRCTEGFNVDKKCQCDELCSYYQSCCTDYTAECKPQVTRGDVFTMPEDEYTVYDDGEEKNNATVHEQVGGPSLTSDLQAQSKGNPEQTPVLKPEEEAPAPEVGASKPEGIDSRPETLHPGRPQPPAEEELCSGKPFDAFTDLKNGSLFAFRGQYCYELDEKAVRPGYPKLIRDVWGIEGPIDAAFTRINCQGKTYLFKGSQYWRFEDGVLDPDYPRNISDGFDGIPDNVDAALALPAHSYSGRERVYFFKGKQYWEYQFQHQPSQEECEGSSLSAVFEHFAMMQRDSWEDIFELLFWGRTSAGTRQPQFISRDWHGVPGQVDAAMAGRIYISGMAPRPSLAKKQRFRHRNRKGYRSQRGHSRGRNQNSRRPSRATWLSLFSSEESNLGANNYDDYRMDWLVPATCEPIQSVFFFSGDKYYRVNLRTRRVDTVDPPYPRSIAQYWLGCPAPGHL
modifications: bait human Fc-tagged dimer
B11: ADP118 (protein)
chain: MARAAALLPSRSPPTPLLWPLLLLLLLETGAQDVRVQVLPEVRGQLGGTVELPCHLLPPVPGLYISLVTWQRPDAPANHQNVAAFHPKMGPSFPSPKPGSERLSFVSAKQSTGQDTEAELQDATLALHGLTVEDEGNYTCEFATFPKGSVRGMTWLRVIAKPKNQAEAQKVTFSQDPTTVALCISKEGRPPARISWLSSLDWEAKETQVSGTLAGTVTVTSRFTLVPSGRADGVTVTCKVEHESFEEPALIPVTLSVRYPPEVSISGYDDNWYLGRTDATLSCDVRSNPEPTGYDWSTTSGTFPTSAVAQGSQLVIHAVDSLFNTTFVCTVTNAVGMGRAEQVIFVRETPNTAGAGAT
modifications: bait human Fc-tagged dimer
B12: ADP117 (protein)
chain: MAAPGSARRPLLLLLLLLLLGLMHCASAAMFMVKNGNGTACIMANFSAAFSVNYDTKSGPKNMTFDLPSDATVVLNRSSCGKENTSDPSLVIAFGRGHTLTLNFTRNATRYSVQLMSFVYNLSDTHLFPNASSKEIKTVESITDIRADIDKKYRCVSGTQVHMNNVTVTLHDATIQAYLSNSSFSRGETRCEQDRPSPTTAPPAPPSPSPSPVPKSPSVDKYNVSGTNGTCLLASMGLQLNLTYERKDNTTVTRLLNINPNKTSASGSCGAHLVTLELHSEGTTVLLFQFGMNASSSRFFLQGIQLNTILPDARDPAFKAANGSLRALQATVGNSYKCNAEEHVRVTKAFSVNIFKVWVQAFKVEGGQFGSVEECLLDENSMLIP
modifications: bait human Fc-tagged dimer

target: Circumsporozoite protein (CSP) (Plasmodium falciparum (isolate 3D7), UniProt Q7K740); assay: AVEXIS screen signal:noise (double-corrected)
Sequence (Q7K740 19-374): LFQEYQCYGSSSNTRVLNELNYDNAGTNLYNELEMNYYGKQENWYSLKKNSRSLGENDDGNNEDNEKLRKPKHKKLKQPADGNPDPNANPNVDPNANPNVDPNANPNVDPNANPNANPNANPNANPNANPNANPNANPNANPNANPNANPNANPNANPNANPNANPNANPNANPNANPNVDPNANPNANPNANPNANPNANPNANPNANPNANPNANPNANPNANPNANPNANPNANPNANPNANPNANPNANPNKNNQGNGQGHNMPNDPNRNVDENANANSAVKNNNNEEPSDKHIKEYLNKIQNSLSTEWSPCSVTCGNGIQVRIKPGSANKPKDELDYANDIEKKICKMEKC

| Binder | binding score |
| --- | --- |
| B1 | 1.38 |
| B2 | 0.77 |
| B3 | 0.921 |
| B4 | 1.08 |
| B5 | 1.73 |
| B6 | 1.19 |
| B7 | 1.49 |
| B8 | 1.03 |
| B9 | 0.814 |
| B10 | 1.13 |
| B11 | 0.743 |
| B12 | 0.992 |
